One assay has as its system BL-2 cells (lymphoid). Briefly: Flow cytometry staining before and after induction of apoptosis, BL-2. Conditions: single replicates, listed as Ann V. Format: cell-based, human. The method, then: (§1) Fig. 2 Apo-15 binds to apoptotic cells of different origin in multiple environments. a Representative fluorescence confocal microscopy images (from three independent experiments) human apoptotic (yellow arrows) and viable (white arrows) cells from different lineages: BL-2 (lymphoid), neutrophils (myeloid), and primary airway epithelial cells (epithelial). Cells were incubated with Apo-15 (100 nM, green), AF647-Annexin V (5 nM, red), and Hoechst 33342 (7 μM, blue) for 10 min and imaged under a fluorescence confocal microscope (λexc.: 405, 488, 633 nm: λem.: 450, 525, 670 nm). Scale bars: 10 µm. b Divalent cation-independent binding of Apo-15 to apoptotic cells of different origin (top plots: lymphoid cells, bottom plots: myeloid cells). Mixtures of apoptotic (highlighted in green dots) and viable cells (highlighted in black dots) were stained with AF647-Annexin V (25 nM) and Apo-15 (100 nM) in the presence of 2 mM CaCl2 (left) or 2.5 mM EDTA (right). Representative histograms showing Apo-15 binding (x-axis) vs AF647-Annexin V binding (y-axis) acquired on 5L LSR flow cytometer (n = 5). c Cells were sorted on their Apo-15 positivity (green populations in panel b) or negativity (black populations in panel b). Gating strategy in Supplementary Fig. 7. Morphological analysis (four independent images from two independent experiments) of cytocentrifuge preparations of Apo-15-positive and Apo-15-negative cells under brightfield microscopy (scale bar: 10 µm). d Quantification of fluorescence staining of neutrophils (myeloid, n ≥ 5), BL-2 cells (lymphoid, n ≥ 3) and primary airway epithelial cells (epithelial, n = 5) before and after induction of apoptosis and upon treatment with Apo-15 and AF647-Annexin V. Data acquired on 5 L LSR flow cytometer and presented as mean values ± SEM. P values obtained from two-tailed t tests. Source data (in d) are provided as a Source data file. […]
(§2) All apopeptides were reconstituted at 5 mM in DMSO. […] Fluorescence emission was measured on a 5 L LSR flow cytometer (BD). […]
A general note: Flow cytometry measures light scatter and fluorescence of single cells or particles in a stream.

Assay [1] has as its system primary airway epithelial cells. Briefly: Flow cytometry staining before and after induction of apoptosis, epithelial. Format: cell-based, human. Conditions: single replicates, listed as Ann V. How it is done: as §1, §2

Several values for one entry are separate records, joined by “and”; a condition that tells them apart may be missing. Equal entries are not always repeated.

B1: Annexin V: fluorescently-labeled (AF647) annexin V, PS-binding protein (protein, UniProt P08758 2-320, looked up)
Annexin A5: AQVLRGTVTDFPGFDERADAETLRKAMKGLGTDEESILTLLTSRSNAQRQEISAAFKTLFGRDLLDDLKSELTGKFEKLIVALMKPSRLYDAYELKHALKGAGTNEKVLTEIIASRTPEELRAIKQVYEEEYGSSLEDDVVGDTSGYYQRMLVVLLQANRDPDAGIDEAQVEQDAQALFQAGELKWGTDEEKFITIFGTRSVSHLRKVFDKYMTISGFQIEETIDRETSGNLEQLLLAVVKSIRSIPAYLAETLYYAMKGAGTDDHTLIRVMVSRSEIDLFNIRKEFRKNFATSLYSMIKGDTSGDYKKALLLLCGEDD
modifications: AF647 label
With B1, the “Stained cells (flow cytometry)” value with BL-2 cells (lymphoid) (BL-2 0h UV) was 25.4% and 28.9% and 10.3%; in the assay with BL-2 cells (lymphoid) (BL-2 3h UV, EDTA) it was 1.4% and 1.1% and 2.6%; in the assay on BL-2 cells (lymphoid) (BL-2 3h UV), 86.9% and 45.3% and 46.5% and 34.9%; in assay [1] (epithelial cells untreated (UNT)), 7.0% and 6.2% and 7.1% and 5.9% and 13.0%; in assay [1] (epithelial cells, staurosporine (ST, 1 µM 6 h)) it was 14.1% and 17.9% and 25.5% and 29.1% and 22.0%; in assay [1] (epithelial cells, staurosporine, EDTA), 0.024% and 0.1% and 0.37% and 3.0% and 2.0%.

These data come from publication PMC7423924, “A fluorogenic cyclic peptide for imaging and quantification of drug-induced apoptosis” (Nature Communications, 2020).
